Laboratory results reported in the supplement of paper PMC7877785.
± gives the uncertainty stated by the source.

Assay: self-splicing fitness, log relative to wild type (ln ratio); higher = more splicing; Tetrahymena group I intron in knt gene, E. coli kanamycin selection, DiMSum; sequences stand for … in CUCUCU…GGAGGGAAAAGUUAUCAGGCAUGCACCUGGUAGCUAGUCUUUAAACCAAUAGAUUGCAUCGGUUUAAAAGGCAAGACCGUCAAAUUGCGGGAAAGGGGUCAACAGCCGUUCAGUACCAAGUCUCAGGGGAAACUUUGAGAUGGCCUUGCAAAGGGUAUGGUAAUAAGCUGACGGACAUGGUCCUAACCACGCAGCCAAGUCCUAAGUCAACAGAUCUUCUGUUGAUAUGGAUGCAGUUCACAGACUAAAUGUCGGUCGGGGAAGAUGUAUUCUUCUCAUAAGAUAUAGUCGGACCUCUCCUUAAUGGGAGCUAGCGGAUGAAGUGAUGCAACACUGGAGCCGCUGGGAACUAAUUUGUAUGCGAAAGUAUAUUGAUUAGUUUUGGAGUACUCGUGGUCG
Summary of the method: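 Fitness was computed with DiMSum as the error-weighted combination of replicate fold changes, kanamycin versus none, each normalised to wild type. The library randomised all eight intron nucleotides of the P1ex region, with the intron placed in the knt kanamycin-resistance gene on pET-22b(+) in E. coli BL21(DE3). Six replicate transformations were grown overnight at 37°C or 30°C on LB agar with or without 25 μg/mL kanamycin, plus 100 μg/mL carbenicillin, 50 μM IPTG and 0.2% rhamnose. Pooled colonies were amplicon-sequenced on an Illumina HiSeq 2500.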

| Sequence | self-splicing fitness (ln) (30 °C) | self-splicing fitness (ln) (37 °C) |
| --- | --- | --- |
| AUCCAGCAAUAUUACGAUCU | -1.84 ± 0.091 | -0.641 ± 0.12 |
| AUCCAGCAAUAUUACGCAUA | -1.19 ± 0.12 | -0.443 ± 0.12 |
| AUCCAGCAAUAUUACGCGCC | -0.363 ± 0.14 | 0.126 ± 0.17 |
| AUCCAGCAAUAUUACGCUCA | 0.0746 ± 0.13 | 0.8 ± 0.17 |
| AUCCAGCAAUAUUACGGAAC | -2.68 ± 0.18 | -1.06 ± 0.15 |
| AUCCAGCAAUAUUACGGAUC | -3.35 ± 0.18 | -3.11 ± 0.2 |
| AUCCAGCAAUAUUACGGGCC | -1.23 ± 0.2 | -1.24 ± 0.33 |
| AUCCAGCAAUAUUACGGGCG | -0.327 ± 0.066 | 0.25 ± 0.089 |
| AUCCAGCAAUAUUACGGUCC | -1.39 ± 0.13 | -0.176 ± 0.21 |
| AUCCAGCAAUAUUACGGUGU | -1.07 ± 0.062 | -0.834 ± 0.079 |
| AUCCAGCAAUAUUACGUAGU | -1.54 ± 0.074 | -0.703 ± 0.093 |
| AUCCAGCAAUAUUACGUAUA | -0.94 ± 0.11 | -1.11 ± 0.14 |
| AUCCAGCAAUAUUACGUCUU | -0.371 ± 0.065 | 0.716 ± 0.081 |
| AUCCAGCAAUAUUACGUGAU | -2.15 ± 0.1 | -1.04 ± 0.12 |
| AUCCAGCAAUAUUACGUGGA | -4.34 ± 0.39 | -2.23 ± 0.19 |
| AUCCAGCAAUAUUACGUUAU | -1.36 ± 0.072 | -0.198 ± 0.089 |
| AUCCAGCAAUAUUACGUUUG | -2.58 ± 0.12 | -2.93 ± 0.18 |
| AUCGAGCAAUAUUACGAACU | -1.06 ± 0.17 | -0.725 ± 0.19 |
| AUCGAGCAAUAUUACGACGA | -0.908 ± 0.099 | -0.324 ± 0.13 |
| AUCGAGCAAUAUUACGAGAA | – | -2.44 ± 0.34 |
| AUCGAGCAAUAUUACGAUCU | -1.58 ± 0.086 | -0.957 ± 0.08 |
| AUCGAGCAAUAUUACGAUGA | -3.37 ± 0.25 | -1.86 ± 0.16 |
| AUCGAGCAAUAUUACGAUUG | -4.49 ± 0.46 | -3.32 ± 0.26 |
| AUCGAGCAAUAUUACGCAGG | -3.53 ± 0.28 | -2.77 ± 0.22 |

| Sequence | self-splicing fitness (ln) (30 °C) | self-splicing fitness (ln) (37 °C) |
| --- | --- | --- |
| AUCGAGCAAUAUUACGCCCG | -3.48 ± 0.36 | -0.807 ± 0.32 |
| AUCGAGCAAUAUUACGCCGG | -1.43 ± 0.22 | -1.57 ± 0.3 |
| AUCGAGCAAUAUUACGCUGA | – | -1.82 ± 0.32 |
| AUCGAGCAAUAUUACGGAAA | – | -2.64 ± 0.34 |
| AUCGAGCAAUAUUACGGCCU | -3.22 ± 0.3 | -1.2 ± 0.17 |
| AUCGAGCAAUAUUACGGGAU | -2.82 ± 0.15 | -1.78 ± 0.19 |
| AUCGAGCAAUAUUACGGGCA | -1.99 ± 0.23 | -1.32 ± 0.27 |
| AUCGAGCAAUAUUACGGUUU | -2.08 ± 0.091 | -1.71 ± 0.099 |
| AUCGAGCAAUAUUACGUAAU | -1.91 ± 0.12 | -1.25 ± 0.13 |
| AUCGAGCAAUAUUACGUACC | -3.76 ± 0.35 | -1.53 ± 0.34 |
| AUCGAGCAAUAUUACGUGAA | -2.75 ± 0.14 | -1.83 ± 0.16 |
| AUCGAGCAAUAUUACGUGUU | -2.9 ± 0.22 | -2.42 ± 0.29 |
| AUCGAGCAAUAUUACGUUAC | -3.04 ± 0.28 | -1.82 ± 0.27 |
| AUCGAGCAAUAUUACGUUCA | -0.62 ± 0.095 | -0.544 ± 0.13 |
| AUCUAGCAAUAUUACGACGC | -0.785 ± 0.089 | -0.226 ± 0.13 |
| AUCUAGCAAUAUUACGAUCC | -1.97 ± 0.18 | -0.573 ± 0.26 |
| AUCUAGCAAUAUUACGAUGA | -1.03 ± 0.091 | -0.237 ± 0.091 |
| AUCUAGCAAUAUUACGCCAA | – | -0.995 ± 0.48 |
| AUCUAGCAAUAUUACGCGGU | -2.85 ± 0.18 | -2.73 ± 0.26 |
| AUCUAGCAAUAUUACGCGUC | -3.53 ± 0.39 | -1.07 ± 0.18 |
| AUCUAGCAAUAUUACGGCAU | 0.455 ± 0.096 | 0.24 ± 0.1 |
| AUCUAGCAAUAUUACGGCUU | -0.0659 ± 0.1 | 0.305 ± 0.12 |
| AUCUAGCAAUAUUACGGGCC | -3.15 ± 0.23 | -2.18 ± 0.22 |
| AUCUAGCAAUAUUACGGGUG | -1.93 ± 0.067 | -0.57 ± 0.067 |

| Sequence | self-splicing fitness (ln) (30 °C) | self-splicing fitness (ln) (37 °C) |
| --- | --- | --- |
| AUCUAGCAAUAUUACGGGUU | -3.51 ± 0.15 | -3.09 ± 0.21 |
| AUCUAGCAAUAUUACGUACC | -1.3 ± 0.091 | -0.395 ± 0.11 |
| AUCUAGCAAUAUUACGUACU | -0.329 ± 0.082 | -0.199 ± 0.11 |
| AUCUAGCAAUAUUACGUCGC | -3.06 ± 0.47 | -1.86 ± 0.49 |
| AUCUAGCAAUAUUACGUGCU | -2.25 ± 0.17 | -1.97 ± 0.28 |
| AUCUAGCAAUAUUACGUGUA | -2.44 ± 0.12 | -1.31 ± 0.11 |
| AUCUAGCAAUAUUACGUUCA | -1.33 ± 0.099 | -0.242 ± 0.085 |
| AUGAAGCAAUAUUACGACCA | 0.00939 ± 0.06 | 0.489 ± 0.083 |
| AUGAAGCAAUAUUACGACGC | 0.112 ± 0.13 | -0.034 ± 0.17 |
| AUGAAGCAAUAUUACGAUCA | -0.14 ± 0.081 | 0.405 ± 0.11 |
| AUGAAGCAAUAUUACGCAAG | -0.379 ± 0.085 | -0.121 ± 0.11 |
| AUGAAGCAAUAUUACGCGAA | -1.15 ± 0.087 | -0.0789 ± 0.093 |
| AUGAAGCAAUAUUACGCUCC | -0.958 ± 0.32 | 0.251 ± 0.35 |
| AUGAAGCAAUAUUACGCUGA | -1.2 ± 0.13 | -1.24 ± 0.17 |
| AUGAAGCAAUAUUACGCUGG | -1.42 ± 0.1 | -0.718 ± 0.12 |
| AUGAAGCAAUAUUACGCUUC | -1.79 ± 0.15 | -2.99 ± 0.41 |
| AUGAAGCAAUAUUACGGCAU | -0.0745 ± 0.047 | 0.444 ± 0.063 |
| AUGAAGCAAUAUUACGGGAG | -1.71 ± 0.098 | -1.16 ± 0.11 |
| AUGAAGCAAUAUUACGGGAU | -0.638 ± 0.056 | -0.499 ± 0.093 |
| AUGAAGCAAUAUUACGGUCG | 0.0254 ± 0.086 | 0.299 ± 0.1 |
| AUGAAGCAAUAUUACGGUUA | -0.509 ± 0.058 | 0.318 ± 0.077 |
| AUGAAGCAAUAUUACGGUUU | -1.99 ± 0.088 | -0.875 ± 0.091 |
| AUGAAGCAAUAUUACGUACA | -0.369 ± 0.083 | -0.631 ± 0.089 |
| AUGAAGCAAUAUUACGUAGU | -1.91 ± 0.062 | -0.665 ± 0.092 |

| Sequence | self-splicing fitness (ln) (30 °C) | self-splicing fitness (ln) (37 °C) |
| --- | --- | --- |
| AUGAAGCAAUAUUACGUAUG | -1.78 ± 0.082 | -1.26 ± 0.098 |
| AUGAAGCAAUAUUACGUCCU | -0.113 ± 0.093 | 0.0551 ± 0.11 |
| AUGAAGCAAUAUUACGUCGU | -0.896 ± 0.07 | -0.0581 ± 0.089 |
| AUGAAGCAAUAUUACGUGAU | -1.24 ± 0.073 | -0.839 ± 0.085 |
| AUGAAGCAAUAUUACGUGCG | -0.65 ± 0.08 | 0.532 ± 0.11 |
| AUGAAGCAAUAUUACGUGGA | -2.73 ± 0.096 | -1.45 ± 0.11 |
| AUGCAGCAAUAUUACGAAUU | -1.9 ± 0.1 | -0.246 ± 0.12 |
| AUGCAGCAAUAUUACGACGC | -1.48 ± 0.11 | -1.32 ± 0.12 |
| AUGCAGCAAUAUUACGAGAC | -3.17 ± 0.29 | -2.59 ± 0.33 |
| AUGCAGCAAUAUUACGAGCC | -2.69 ± 0.2 | -0.935 ± 0.18 |
| AUGCAGCAAUAUUACGAGCU | -0.624 ± 0.073 | -0.565 ± 0.088 |
| AUGCAGCAAUAUUACGAGGU | -3.04 ± 0.16 | -2.27 ± 0.13 |
| AUGCAGCAAUAUUACGAUAA | -1.55 ± 0.1 | 0.424 ± 0.092 |
| AUGCAGCAAUAUUACGCACA | -0.62 ± 0.11 | 0.467 ± 0.13 |
| AUGCAGCAAUAUUACGCUGG | -2.5 ± 0.17 | -2.68 ± 0.25 |
| AUGCAGCAAUAUUACGGAGC | -2.6 ± 0.15 | -2.99 ± 0.18 |
| AUGCAGCAAUAUUACGGAGG | -3.79 ± 0.2 | -2.07 ± 0.15 |
| AUGCAGCAAUAUUACGGCCA | -0.753 ± 0.14 | 0.267 ± 0.14 |
| AUGCAGCAAUAUUACGGGCC | -1.43 ± 0.1 | -1.02 ± 0.11 |
| AUGCAGCAAUAUUACGGGGC | -4.09 ± 0.23 | -2.54 ± 0.21 |
| AUGCAGCAAUAUUACGGGUC | -3.56 ± 0.31 | -1.61 ± 0.13 |
| AUGCAGCAAUAUUACGGGUU | -1.98 ± 0.075 | -1.29 ± 0.096 |
| AUGCAGCAAUAUUACGGUCU | -0.211 ± 0.078 | 0.0315 ± 0.091 |
| AUGCAGCAAUAUUACGUAGC | -3.81 ± 0.37 | -2.34 ± 0.24 |
